Earlier results on one substance are cited in PMC3238542.

Broadly, the Ki is a dissociation constant, usually derived from enzyme kinetics or from competition with a known ligand.

Where two headings read alike, the source gives them in different places.

In data set [1] the target is pyruvate carboxylase (UniProt P11498).
The target is the same in data set [2]. Nature of the data set: enzyme inhibition.

Sequence of UniProt P11498 (P11498 21-1178): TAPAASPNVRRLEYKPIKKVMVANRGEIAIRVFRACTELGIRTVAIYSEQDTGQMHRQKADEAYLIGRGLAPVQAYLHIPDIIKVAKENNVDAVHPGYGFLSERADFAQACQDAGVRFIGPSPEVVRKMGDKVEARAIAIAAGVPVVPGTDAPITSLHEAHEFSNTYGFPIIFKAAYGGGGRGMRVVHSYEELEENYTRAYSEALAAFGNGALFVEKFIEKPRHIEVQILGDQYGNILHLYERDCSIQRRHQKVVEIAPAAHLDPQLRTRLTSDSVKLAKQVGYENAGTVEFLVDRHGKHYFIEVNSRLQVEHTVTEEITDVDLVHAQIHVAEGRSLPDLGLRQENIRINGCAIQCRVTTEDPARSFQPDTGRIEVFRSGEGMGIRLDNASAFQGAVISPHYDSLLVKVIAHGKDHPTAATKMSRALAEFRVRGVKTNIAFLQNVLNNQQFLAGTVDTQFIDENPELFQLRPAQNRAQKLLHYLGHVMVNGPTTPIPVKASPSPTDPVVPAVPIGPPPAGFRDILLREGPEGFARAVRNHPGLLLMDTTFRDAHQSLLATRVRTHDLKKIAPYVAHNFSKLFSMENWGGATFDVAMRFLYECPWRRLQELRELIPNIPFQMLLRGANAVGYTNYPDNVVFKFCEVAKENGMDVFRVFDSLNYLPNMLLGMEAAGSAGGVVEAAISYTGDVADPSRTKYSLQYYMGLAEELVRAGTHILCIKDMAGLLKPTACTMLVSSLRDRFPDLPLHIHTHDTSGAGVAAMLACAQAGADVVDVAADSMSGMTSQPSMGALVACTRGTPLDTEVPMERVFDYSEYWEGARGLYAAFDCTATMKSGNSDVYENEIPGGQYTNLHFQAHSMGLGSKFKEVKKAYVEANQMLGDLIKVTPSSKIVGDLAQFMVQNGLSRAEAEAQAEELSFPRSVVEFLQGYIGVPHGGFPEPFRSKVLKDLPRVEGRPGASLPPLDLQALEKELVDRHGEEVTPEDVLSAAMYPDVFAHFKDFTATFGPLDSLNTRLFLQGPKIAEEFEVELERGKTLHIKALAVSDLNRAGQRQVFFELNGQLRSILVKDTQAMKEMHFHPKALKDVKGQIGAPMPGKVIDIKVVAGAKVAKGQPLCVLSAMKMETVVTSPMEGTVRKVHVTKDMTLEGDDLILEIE

For the substance prohibitin (Phb1) (from UniProt P35232), the results for the Ki in data set [1] and in data set [2] were 4 nM and 5 nM, respectively.
